Data from patent KR20230117039A (dated 2023).

T1: N-terminally biotinylated hNinj1 (2-56) peptide (human, UniProt Q92982 2-56, N-terminal biotin)
T1 construct: range 2-56; also called hNinj1 펩타이드
T1 sequence (peptide, looked up): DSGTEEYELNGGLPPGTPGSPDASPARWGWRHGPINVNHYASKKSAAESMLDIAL

T2: hNinj1 extracellular domain peptide with added C-terminal lysine, biotinylated (human)
T2 sequence (peptide, biotin on the added C-terminal lysine (K57)): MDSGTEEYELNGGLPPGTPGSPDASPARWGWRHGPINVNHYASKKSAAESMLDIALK

T3: NINJ1 peptide (analyte of the sandwich ELISA) (UniProt Q92982 1-56, limits assumed)
T3 construct: also called Ninj1 펩타이드; NINJ1 펩타이드
T3 sequence (peptide, looked up): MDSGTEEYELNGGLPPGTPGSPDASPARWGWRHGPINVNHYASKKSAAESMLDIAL


Tests used:
[1] = target: T1, N-terminally biotinylated hNinj1 (2-56) …; experiment: scFv clone ELISA screen
[2] = target: T2, hNinj1 extracellular domain peptide with added C-terminal lysine, biotinylated (human); experiment: clone ELISA screen
[3] = target: T3, NINJ1 peptide (analyte of the sandwich …); experiment: sandwich ELISA, NINJ1 titrated

ELISA ratio hNinj1/control [1] | ELISA ratio hNinj1/control [2] | Binder | other results
5.12 | – | B3, scFv clone of the VH3VL1 synthetic human antibody library (scFv) EVQLLESGGGLVQPGGSLRLSCAASGFTFSDYDMSWVRQAPGKGLEWVSGISSDNGSTYYADSVKGRFTISRDNSKNTLYLQMNSLRAEDTAVYYCARAAITCNNEWCYYYDAMDVWGQGTLVTVSSGGGGSGGGGSGGGGSQSVLTQPPSASGTPGQRVTISCTGPSSNIGNNDVSWYQQLPGTAPKLLIYANSNRPSGVSDRFSGSKSGTSASLAISGLRSEDEADYYCGAWDDSLNGYVFGGGTKLTVLGQAGQHHHHHHGAYPYDVPDYAS | –
5.62 | – | E6, scFv clone of the VH3VL1 synthetic human antibody library (scFv) EVQLLESGGGLVQPGGSLRLSCAASGFTFSSYAIHWVRQAPGKGLEWVSAISGSGGSTYYADSVKGRFTISRNNSKNTLYLQVNSLRAEDTAVYYCARNPTYGGFDIWGQGTLVTVSSGGGGSGGGGSGGGGSQSVLTQPPSASGTPGQRVTISCSGSSSNIGSNYVYWYQQLPGTAPKLLIYRNNQRPSGVPDRFSGSKSGTSASLAISGLRSEDEADYYCGAWDDSLSSPVFGGGTKLTVLGQAGQHHHHHHGAYPYDVPDYAS | –
– | 5.09 | C12, Fab clone of the rabbit immune library (Fab, V domains shown) VH: QEQLKETGGGLVQPGGSLKLSCKASGIDFNTYTVSWVRQAPGKGLELIGYVDPVFDDTYYATWVNGRFTISSHNAQNTVYLQLNSLTAADTATYFCARLGAYDSSSGYPNFSLWGPGTLVTISS VL: ELTQPPSLSASLDTTARLTCTLSTDYSVGEYPLVWLQQVPGRPPRYLLGYHTDDIKHQGPGVPSRFSGSKDHSTNTGVLTISGLQPEDEADYYCAVGVVFGGGTQLTVTG | –
– | 10.6 | G2, Fab clone of the rabbit immune library (Example 1.3.3) (Fab, V domains shown) VH: QEQLKETGGGLVQPGGSLKLSCKASGIDFNTYTVSWVRQAPGKGLELIGYVDPVFDDTYYATWVNGRFTISSHNAQNTVYLQLNSLTAADTATYFCARLGAYDSSSGYPNFSLWGPGTLVTISS VL: ELTQPPSLSASLDTTARLTCTLSTDYSVGEYPLVWLQQVPGRPPRYLLGYHTDDIKHQGPGVPSRFSGSKDHSTNTGVLTISGLQPEDEADYYCAVGVVFGGGTQLTVTG | –
– | – | C12 anti-Ninj1 IgG antibody (antibody, V domains shown, Tested as IgG made in ExpiCHO; also called C12 IgG; 항 C12 Ninj1 항체) VH: QEQLKETGGGLVQPGGSLKLSCKASGIDFNTYTVSWVRQAPGKGLELIGYVDPVFDDTYYATWVNGRFTISSHNAQNTVYLQLNSLTAADTATYFCARLGAYDSSSGYPNFSLWGPGTLVTISS VL: ELTQPPSLSASLDTTARLTCTLSTDYSVGEYPLVWLQQVPGRPPRYLLGYHTDDIKHQGPGVPSRFSGSKDHSTNTGVLTISGLQPEDEADYYCAVGVVFGGGTQLTVTG | EC50 [3]: ~0.03 µg/mL
6.18 | – | C11, scFv clone of the VH3VL1 synthetic human antibody library (scFv) EVQLLESGGGLVQPGGSLRLSCAASGFTFSSYGISWVRQAPGKGLEWVSAISGSGGSTYYADSVKGRFTISRDNSKNTLYLQMNSLRAEDTAVYYCARTPIDADAFDYWGQGTLVTVSSGGGGSGGGGSGGGGSQSVLTQPPSASGTPGQRVTISCTGNIGNIASNYVQWYQQLPGTAPKLLIYDTYNKHRGVPDRFSGSKSGTSASLAISGLRSEDEADYYCGAWDDSLSGPVFGGGTKLTVLGQAGQHHHHHHGAYPYDVPDYAS | –
